According to patent US10471162B2, “Collagen targeted imaging probes” (priority 2014, dated 2019):

Assays:
in vivo = experiment: in vivo; design: species or system mouse; settings: male, C57Bl/6, mouse, iv, total radioactivity, Biodistribution % ID/lung
Method: (§1) Adult male C57Bl/6 mice were administered a single intratracheal dose of low dose bleomycin at 0.1 U/kg (low dose), in a total volume of 50 μl sterile saline. FTY720 was administered intraperitoneally to the mice at 1 mg/kg three times a week. To effect treatment in the low dose bleomycin, vascular leak model, the therapeutic murine antibody 3G9 (alpha-v-beta6 blocking antibody) and 1E6 (matched isotype control antibody) were used. Antibodies were injected into mice intraperitoneally three times week at a concentration of 1 mg/kg. All administrations of FTY720 and antibodies were initiated on day 0, ˜30 minutes before bleomycin challenge and continued throughout the duration of the experiments. […] The tissues were weighed, and radioactivity in each tissue was measured on a gamma counter (CobraII Auto gamma; Packard). The radioactivity in the lung was reported as percent injected dose per gram corrected with the average sham weight, which was calculated by dividing the counts of ^64Cu per average sham tissue weight in gram by the total of counts of the injected dose. The radioactivity in every other tissue was reported as percent injected dose per gram (% ID/g), which was calculated by dividing the counts of ^64Cu per gram of tissue by the total of counts of the injected dose. […] Uncertainties are expressed as the standard error of the mean.

[1] = system: pulmonary fibrosis, low dose bleomycin, vascular leak model; experiment: in vivo; design: species or system mouse; settings: mouse
Method: as §1

[2] = system: pulmonary fibrosis, low dose bleomycin, vascular leak model; settings: male, C57Bl/6, mouse, in vivo, iv
Method: Adult male C57Bl/6 mice were administered a single intratracheal dose of low dose bleomycin at 0.1 U/kg (low dose), in a total volume of 50 μl sterile saline. FTY720 was administered intraperitoneally to the mice at 1 mg/kg three times a week. To effect treatment in the low dose bleomycin, vascular leak model, the therapeutic murine antibody 3G9 (alpha-v-beta6 blocking antibody) and 1E6 (matched isotype control antibody) were used. Antibodies were injected into mice intraperitoneally three times week at a concentration of 1 mg/kg. All administrations of FTY720 and antibodies were initiated on day 0, ˜30 minutes before bleomycin challenge and continued throughout the duration of the experiments. Animals were placed in a small-animal PET/SPECT/CT scanner (Triumph; TriFoil Imaging), equipped with inhalation anesthesia and heating pad. […] Instrument calibration was performed with phantoms containing small known amounts of radioactivity. […] Reconstructed PET/CT data were quantitatively evaluated using AMIDE software package (Loening and Gambhir, 2003). […] The radioactivity concentration within organs was obtained from mean pixel values within the VOI volume and converted to counts per milliliter per minute and then divided by the injected dose (ID) to obtain an imaging VOI-derived percentage of the injected radioactive dose per cubic centimeter of tissue (% ID/cc). […]

Q: For `CC(C)C[C@H](NC(=O)[C@@H]1CSSC[C@H](NC(=O)[C@H](Cc2c[nH]cn2)NC(=O)[C@H](Cc2c[nH]c3ccccc23)NC(=O)[C@H](CCCCNC(=O)CNC(=O)CCC(C(=O)O)N2CCN(CC(=O)O)CCN(CC(=O)O)CC2)NC(=O)CNC(=O)CCC(C(=O)O)N2CCN(CC(=O)O)CCN(CC(=O)O)CC2)C(=O)N[C@@H]([C@@H](C)O)C(=O)N[C@@H]([C@@H](C)O)C(=O)N[C@@H](CCCCNC(=O)CCC(C(=O)O)N2CCN(CC(=O)O)CCN(CC(=O)O)CC2)C(=O)N[C@@H](Cc2ccccc2)C(=O)N2CCC[C@H]2C(=O)N[C@@H](Cc2c[nH]cn2)C(=O)N[C@@H](Cc2c[nH]cn2)C(=O)N[C@@H](Cc2ccc(O)cc2)C(=O)N1)C(=O)N[C@@H](Cc1ccc(O)cc1)C(=O)N[C@@H](Cc1ccc(-c2ccccc2)cc1)C(N)=O` (single isomer, unassigned) [CBP8], which tissue uptake dose at 2.5 h (in vivo) is on record?
A: 0.043 ± 0.001 %ID

Q: And the “organ uptake between groups, except lungs, in words” value [1]?
A: not significantly different

Q: What about the “mean lung PET activity” value [2] of the same compound?
A: 2.07 ± 0.53 % ID/cc
